Substrate in the series: O=[N+]([O-])O
The series can be described thus: fluorescence response (donor quenching) of sensor in yeast, plate reader. The format is cell-based, Arabidopsis thaliana. Particulars: 50 mM MES pH 5.5, monophasic low-affinity response, excitation 428 nm.

B1: NiTrac1 (CHL1/NRT1.1/NPF6.3 fusion) (Arabidopsis thaliana; T101A) (protein)
chain: MSLPETKSDDILLDAWDFQGRPADRSKTGGWASAAMILCIEAVERLTTLGIGVNLVTYLTGTMHLGNATAANTVTNFLGTSFMLCLLGGFIADTFLGRYLAIAIFAAIQATGVSILTLSTIIPGLRPPRCNPTTSSHCEQASGIQLTVLYLALYLTALGTGGVKASVSGFGSDQFDETEPKERSKMTYFFNRFFFCINVGSLLAVTVLVYVQDDVGRKWGYGICAFAIVLALSVFLAGTNRYRFKKLIGSPMTQVAAVIVAAWRNRKLELPADPSYLYDVDDIIAAEGSMKGKQKLPHTEQFRSLDKAAIRDQEAGVTSNVFNKWTLSTLTDVEEVKQIVRMLPIWATCILFWTVHAQLTTLSVAQSETLDRSIGSFEIPPASMAVFYVGGLLLTTAVYDRVAIRLCKKLFNYPHGLRPLQRIGLGLFFGSMAMAVAALVELKRLRTAHAHGPTVKTLPLGFYLLIPQYLIVGIGEALIYTGQLDFFLRECPKGMKGMSTGLLLSTLALGFFFSSVLVTIVEKFTGKAHPWIADDLNKGRLYNFYWLVAVLVALNFLIFLVFSKWYVYKEKRLAEVGIELDDEPSIPMGH
notes: full-length ORF between N-terminal Aphrodite t9 (yellow FP) and C-terminal mCerulean (pDRFlip30); expressed in yeast BJ5465; intact cells
For orientation: Km means the concentration of substrate that gives half-maximal velocity. With B1, the Km was 3.5 ± 3.7 mM.

These data come from publication PMC3950950, “Fluorescent sensors for activity and regulation of the nitrate transceptor CHL1/NRT1.1 and oligopeptide transporters” (eLife, 2014).
